Article PMC7082061 (PLoS Pathogens, 2020)

What was measured:
[1] = molecular target: VSV Gth (aa residues 1-422, VSV G fragment that was previously crystallized) (vesicular stomatitis virus); experiment: negative staining electron microscopy
[2] = molecular target: the molecule itself; experiment: negative staining electron microscopy

VSV Gth (aa residues 1-422, VSV G fragment that was previously crystallized) (domain or fragment), sequence (P0C2X0 1-422): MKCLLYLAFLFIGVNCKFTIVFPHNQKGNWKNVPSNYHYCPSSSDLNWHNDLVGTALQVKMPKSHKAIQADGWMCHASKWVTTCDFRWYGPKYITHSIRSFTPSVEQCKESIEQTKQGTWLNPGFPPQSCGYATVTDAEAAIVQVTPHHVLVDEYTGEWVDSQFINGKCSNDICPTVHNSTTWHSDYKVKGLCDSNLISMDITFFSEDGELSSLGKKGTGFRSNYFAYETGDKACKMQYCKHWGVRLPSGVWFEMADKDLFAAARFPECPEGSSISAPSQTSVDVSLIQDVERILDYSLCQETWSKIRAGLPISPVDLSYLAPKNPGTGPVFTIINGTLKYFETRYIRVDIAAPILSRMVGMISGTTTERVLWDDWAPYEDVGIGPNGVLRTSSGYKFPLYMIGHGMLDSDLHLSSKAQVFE

Row | Molecule | stoichiometry N [1] | stoichiometry N [2]
1 | VSV Gth (aa residues 1-422, VSV G fragment that was previously crystallized) (domain or fragment) | 3 | 
2 | MOKV G_(1-436)WT (wild type Mokola virus glycoprotein G ectodomain) (domain or fragment) EFPLYTIPEKIEKWTPIDMIHLSCPNNLLSEEEGCNAESSFTYFELKSGYLAHQKVPGFTCTGVVNEAETYTNFVGYVTTTFKRKHFRPTVAACRDAYNWKVSGDPRYEESLHTPYPDSSWLRTVTTTKESLLIISPSIVEMDIYGRTLHSPMFPSGVCSNVYPSVPSCETNHDYTLWLPEDPSLSLVCDIFTSSNGKKAMNGSRICGFKDERGFYRSLKGACKLTLCGRPGIRLFDGTWVSFTKPDVHVWCTPNQLINIHNDRLDEIEHLIVEDIIKKREECLDTLETILMSQSVSFRRLSHFRKLVPGYGKAYTILNGSLMETNVYYKRVDKWADILPSKGCLKVGQQCMEPVKGVLFNGIIKGPDGQILIPEMQSEQLKQHMDLLKAAVFPLRHPLISREAVFKKDGDADDFVDLHMPDVHKSVSDVDLGLPH |  | 3
